Article PMC6698660

Molecular target: His-tagged Sinorhizobium meliloti DnaN (β-sliding clamp) (Sinorhizobium meliloti)
Experiment: BLI

Row | kon [M⁻¹ s⁻¹] | Substance
1 | 82000 | MBP-Flag-IEP fusion protein (MF-IEP) of the RmInt1 intron, made in E. coli (natural protein)
2 | 44000 | MF-IEP104 (MF-IEP carrying substitution L104A) (natural protein)
